Measurements published in patent US20180244785A1 (MERRIMACK PHARMACEUTICALS, published 2018).

T1: recombinant human FGFR1c Fc fusion (human, UniProt P11362 141-376)
T1 construct: also called FGFR1IIIc; not shown: Fc part of the FGFR-Fc fusion
T1 sequence: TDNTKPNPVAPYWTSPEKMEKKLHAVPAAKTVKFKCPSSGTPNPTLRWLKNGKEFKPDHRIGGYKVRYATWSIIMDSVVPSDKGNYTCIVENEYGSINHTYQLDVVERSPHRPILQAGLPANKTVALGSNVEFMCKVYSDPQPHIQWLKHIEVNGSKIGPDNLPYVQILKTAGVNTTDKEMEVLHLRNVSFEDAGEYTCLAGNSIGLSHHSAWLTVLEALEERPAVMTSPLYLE

T2: recombinant human FGFR3c Fc fusion (human, UniProt P22607 141-372)
T2 construct: also called FGFR3IIIc; not shown: Fc part of the FGFR-Fc fusion
T2 sequence: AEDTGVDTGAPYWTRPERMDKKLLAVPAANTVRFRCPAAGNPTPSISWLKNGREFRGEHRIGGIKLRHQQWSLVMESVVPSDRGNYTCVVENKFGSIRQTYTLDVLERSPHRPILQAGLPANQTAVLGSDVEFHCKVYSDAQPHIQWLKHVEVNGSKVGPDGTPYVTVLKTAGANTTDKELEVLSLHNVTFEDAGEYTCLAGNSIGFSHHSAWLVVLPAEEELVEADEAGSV

T3: recombinant human FGFR4 Fc fusion (human, UniProt P22455 144-369)
T3 construct: 19 used; also called FGFR4c; not shown: Fc part of the FGFR-Fc fusion
T3 sequence: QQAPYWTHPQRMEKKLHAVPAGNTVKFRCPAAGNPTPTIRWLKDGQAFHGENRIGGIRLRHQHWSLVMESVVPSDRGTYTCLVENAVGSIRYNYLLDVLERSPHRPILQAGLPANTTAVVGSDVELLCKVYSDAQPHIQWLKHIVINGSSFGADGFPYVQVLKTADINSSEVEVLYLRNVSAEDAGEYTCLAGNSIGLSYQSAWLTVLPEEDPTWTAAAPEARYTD

T4: soluble FGFR3c receptor protein (human, UniProt P22607 141-372)
T4 sequence: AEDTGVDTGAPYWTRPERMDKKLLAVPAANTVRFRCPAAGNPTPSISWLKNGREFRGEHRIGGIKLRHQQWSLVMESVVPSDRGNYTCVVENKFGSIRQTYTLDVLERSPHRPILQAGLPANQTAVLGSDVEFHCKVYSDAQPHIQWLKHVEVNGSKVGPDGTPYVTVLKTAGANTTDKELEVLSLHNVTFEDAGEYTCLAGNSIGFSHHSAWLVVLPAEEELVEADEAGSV

T5: soluble FGFR4 receptor protein (human, UniProt P22455 144-369)
T5 sequence: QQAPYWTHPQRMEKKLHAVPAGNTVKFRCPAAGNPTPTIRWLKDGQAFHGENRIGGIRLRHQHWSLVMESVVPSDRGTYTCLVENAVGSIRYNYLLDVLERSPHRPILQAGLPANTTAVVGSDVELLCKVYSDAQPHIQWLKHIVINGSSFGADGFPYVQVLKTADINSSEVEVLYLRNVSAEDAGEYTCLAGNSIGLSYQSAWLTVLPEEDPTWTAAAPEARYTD

T6: soluble FGFR1c receptor protein (human, UniProt P11362 141-376)
T6 sequence: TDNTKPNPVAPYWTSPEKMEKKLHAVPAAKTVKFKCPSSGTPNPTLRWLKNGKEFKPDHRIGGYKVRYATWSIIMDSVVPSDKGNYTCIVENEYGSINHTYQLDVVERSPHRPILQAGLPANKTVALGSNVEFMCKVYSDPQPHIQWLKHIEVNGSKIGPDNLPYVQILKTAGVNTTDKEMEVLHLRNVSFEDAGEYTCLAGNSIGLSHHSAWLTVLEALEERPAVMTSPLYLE

T7: 6His-Fc-FGFR4 (human, UniProt P22455 144-369)
T7 construct: not shown: 6His tag and Fc as named in '6His-Fc-FGFR'
T7 sequence: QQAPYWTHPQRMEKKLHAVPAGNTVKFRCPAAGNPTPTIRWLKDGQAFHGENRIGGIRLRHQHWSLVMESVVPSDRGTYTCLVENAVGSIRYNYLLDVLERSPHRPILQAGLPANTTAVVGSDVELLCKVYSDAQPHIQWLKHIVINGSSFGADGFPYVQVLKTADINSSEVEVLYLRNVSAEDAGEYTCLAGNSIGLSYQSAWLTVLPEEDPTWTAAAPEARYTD

T8: 6His-Fc-FGFR1c (human, UniProt P11362 141-376)
T8 construct: not shown: 6His tag and Fc as named in '6His-Fc-FGFR'
T8 sequence: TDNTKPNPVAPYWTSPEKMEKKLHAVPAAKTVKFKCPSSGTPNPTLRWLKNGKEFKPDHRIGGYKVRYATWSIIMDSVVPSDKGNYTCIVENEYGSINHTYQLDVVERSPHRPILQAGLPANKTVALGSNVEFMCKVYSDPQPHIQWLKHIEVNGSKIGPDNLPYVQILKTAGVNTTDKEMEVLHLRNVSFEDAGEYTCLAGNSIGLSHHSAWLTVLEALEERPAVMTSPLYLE


Assays:
[1] = target: FGFR1 on tumour cells (UniProt P11362 22-822); assay: cell-based or functional assay
FGFR1 on tumour cells, sequence (P11362 22-822): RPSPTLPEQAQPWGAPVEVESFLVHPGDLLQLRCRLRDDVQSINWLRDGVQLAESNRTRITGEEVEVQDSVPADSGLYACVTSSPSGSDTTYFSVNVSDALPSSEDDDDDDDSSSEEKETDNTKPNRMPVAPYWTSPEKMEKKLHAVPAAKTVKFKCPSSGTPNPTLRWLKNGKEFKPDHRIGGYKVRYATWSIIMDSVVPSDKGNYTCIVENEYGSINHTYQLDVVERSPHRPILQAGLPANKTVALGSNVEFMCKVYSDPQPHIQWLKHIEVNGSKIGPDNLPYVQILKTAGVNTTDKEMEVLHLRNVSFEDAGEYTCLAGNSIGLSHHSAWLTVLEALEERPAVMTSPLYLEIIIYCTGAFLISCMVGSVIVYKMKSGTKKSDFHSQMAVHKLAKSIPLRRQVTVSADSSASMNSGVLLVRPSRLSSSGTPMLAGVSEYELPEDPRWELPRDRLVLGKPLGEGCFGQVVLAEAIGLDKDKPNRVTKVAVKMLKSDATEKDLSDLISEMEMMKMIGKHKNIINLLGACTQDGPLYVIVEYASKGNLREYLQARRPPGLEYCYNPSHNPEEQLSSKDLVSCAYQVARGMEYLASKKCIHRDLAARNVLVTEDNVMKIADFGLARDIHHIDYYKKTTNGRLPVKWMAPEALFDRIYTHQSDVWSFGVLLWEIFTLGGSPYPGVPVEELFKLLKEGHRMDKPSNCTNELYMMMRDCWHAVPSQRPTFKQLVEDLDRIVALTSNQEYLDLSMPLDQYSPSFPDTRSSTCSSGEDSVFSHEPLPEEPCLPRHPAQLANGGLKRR

[2] = target: T1, recombinant human FGFR1c Fc fusion; assay: solid phase ELISA on coated FGFR-Fc
Protocol: (§1) For the ELISA assay, the ability of each mAb to cross react with the […] FGF receptors was tested across a concentration curve in order to determine the relative binding across FGFR1-4. FGFR2IIIb was used as a negative control. Black 384-well Maxisorp plates were coated overnight with FGFR-Fc fusions in PBS to 1 ug/ml before washing and blocking with 75 ul/well Pierce Protein Free (PBS) Blocking Buffer for 1 hour at RT. Antibody dilutions were prepared freshly in 1% BSA- PBS+0.05% Tween20 and 25 ul of each antibody was added to wells in duplicate. Plates were incubated at RT for 2 hours, followed by addition of detection antibody at 50 ng/ml in 1% BSA PBS, 0.05% Tween20. ECL substrate (Pierce) was added and plates were read on the EnVision plate reader.

[3] = target: T9, recombinant human FGFR2c Fc fusion (human, UniProt P21802 148-377); assay: solid phase ELISA on coated FGFR-Fc
T9 construct: also called FGFR2IIIc; not shown: Fc part of the FGFR-Fc fusion
T9 sequence (P21802 148-377): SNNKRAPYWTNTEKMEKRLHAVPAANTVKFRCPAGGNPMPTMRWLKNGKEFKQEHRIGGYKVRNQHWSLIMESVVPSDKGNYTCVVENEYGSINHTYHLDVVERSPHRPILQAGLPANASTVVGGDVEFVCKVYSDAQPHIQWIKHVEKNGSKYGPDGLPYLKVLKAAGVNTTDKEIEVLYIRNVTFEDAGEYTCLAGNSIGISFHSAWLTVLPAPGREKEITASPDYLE
Protocol: as §1

[4] = target: T2, recombinant human FGFR3c Fc fusion; assay: solid phase ELISA on coated FGFR-Fc
Protocol: as §1

[5] = target: T3, recombinant human FGFR4 Fc fusion; assay: solid phase ELISA on coated FGFR-Fc
Protocol: as §1

[6] = target: T4, soluble FGFR3c receptor protein; assay: BLI Octet RED96, antibody on anti-hIgG Fc tip
Protocol: (§2) Briefly, the Pall ForteBio Octet RED96 Bio-Layer Interferometry system was used to determine the specificity of anti-FGFR antibodies for FGFR1c, FGFR2c, FGFR3c, and FGFR4. The antibodies and soluble receptor proteins were prepared in PBS at a concentration of 300 nM. First, the candidate antibodies were immobilized on the surface of anti-human IgG Fc biosensor tips for 120 seconds. After immobilization, the biosensors were dipped in PBS solution for 60 seconds (baseline step) to assess assay drift, and determine loading level of antibodies. The baseline step was followed by an association step of 300 seconds wherein the binding interaction between the immobilized antibodies and soluble receptors was measured. Following the association step, the biosensors were dipped into PBS buffer for 600 seconds to measure the dissociation of the bound receptor proteins from the immobilized antibodies. Each binding response was measured and reported real time on a sensorgram trace. For data analysis, a simple 1:1 binding model was used which measures the rate of complex formation of one immobilized antibody and one soluble receptor protein.

[7] = target: T5, soluble FGFR4 receptor protein; assay: BLI Octet RED96, antibody on anti-hIgG Fc tip
Protocol: as §2

[8] = target: T6, soluble FGFR1c receptor protein; assay: BLI Octet RED96, antibody on anti-hIgG Fc tip
Protocol: as §2

[9] = target: soluble FGFR2c receptor protein (human, UniProt P21802 148-377); assay: BLI Octet RED96, antibody on anti-hIgG Fc tip
soluble FGFR2c receptor protein, sequence (P21802 148-377): as above
Protocol: as §2

[10] = target: T7, 6His-Fc-FGFR4; assay: competition ELISA, blocks 6His-Fc-FGFR4 binding to coated FGF2
Protocol: (§3) ELISA plates were coated with 50 ug/ml Heparin Sulfate (HSPG) (Sigma Aldrich) and incubated overnight at room temperature. Plates were then washed extensively with PBS containing 0.05% v/v Tween20 (PBST). Plates were then blocked with 2.5% BSA in PBST for one hour and washed extensively as before. 40-60 μL of FGF1 or FGF2 was then added to each well at 40 μg/ml and allowed to bind at room temperature for 2 hours. Plates were then washed extensively with PBST as before. Stock solutions of each 6His-Fc-FGFR (FGFR1-4) were prepared at 500 ng/ml in 2% v/v BSA-PBST and each antibody was prepared as a 2×-dilution series in 2% v/v BSA-PBST. Antibodies dilution series and 6His-Fc-FGFR1-4 were diluted in a 1:1 fashion and immediately added to the relative wells of the plate and allowed to bind for 2 hours at room temperature. Plates were washed extensively as before with PBST and the remaining fraction of bound 6His-Fc-FGFR was detected using a polyclonal-anti-His-6-HRP conjugated antibody (Abcam) for one hour at room temperature. After extensive washing with PBST, 50 μl of Pierce Chemiluminescent substrate (Thermo Fisher Scientific, Rockford, USA) was added and plates were measured on an Envision plate reader (Perkin Elmer). Raw data was background corrected and plotted using Prism software. […]

[11] = target: T8, 6His-Fc-FGFR1c; assay: competition ELISA, blocks 6His-Fc-FGFR1c binding to coated FGF2
Protocol: as §3

Binder	IC50 of pERK inhibition (AlphaScreen SureFire) in NCI-H1581 cells [1] [nM]	EC50 [2] [nM]	EC50 [3] [nM]	EC50 [4] [nM]	EC50 [5] [nM]	Kd [6] [nM]	koff [6] [s⁻¹]	kon [6] [M⁻¹ s⁻¹]	Kd [7] [nM]	koff [7] [s⁻¹]	kon [7] [M⁻¹ s⁻¹]	Kd [8] [nM]	koff [8] [s⁻¹]	kon [8] [M⁻¹ s⁻¹]	Kd [9] [nM]	koff [9] [s⁻¹]	kon [9] [M⁻¹ s⁻¹]	IC50 [10] [nM]	IC50 [11] [nM]
Ab19 (antibody, human IgG2, kappa, V domains shown, format in the assays not spelled out) VH: EVQLLESGGGVVQPGRSLRLSCAASGFTFSSYAMHWVRQAPGKGLEWVAVISYDGSNKYYADSVKGRFTISRDNSKNTLSLQMNSLRVEDTAIYYCVRGAGRGFTLGPDGFDIWGQGTMVTVSS VL: DIVMTQTPLSLSVTPGQPASISCKSSRSLLHSDGKTYVYWYVQKSGQPPQLLIYELSNRFSGVPDRFSGSGSRTDFTLKISRVEAEDVGVYYCMQYIEAPLTFGGGTKVEIKR	1.01	0.00674	0.0127	0.0745	38.2	6.29	0.000983	151000	8.63	0.0012	125000	8.85	0.000967	91600	6.61	0.00167	252000	11.8	2.03
Ab90 (antibody, human IgG2, kappa, V domains shown, format in the assays not spelled out) VH: EVQLLESGGGVVQPGRSLRLSCAASGFTFSSYAMHWVRQAPGKGLEWVAVISYDGSNKYYADSVKGRFTISRDNSKNTLSLQMNSLRVEDTAIYYCVRGAGRGYPYGPDGFDIWGQGTMVTVSS VL: DIVMTQTPLSLSVTPGQPASISCTSSRSLLHSDGKTYVYWYVQKSGQPPQLLIYELSNRFSGVPDRFSGSGSRTDFTLKISRVEAEDVGVYYCMQYVEVPLTFGGGTKVEIKR	0.715	0.013	0.036	0.171	1.26	11.6	0.0015	126000	6.69	0.000887	112000	12	0.00116	85100	4.62	0.0011	218000	7.38	4.15
Ab92 (antibody, human IgG2, kappa, V domains shown, format in the assays not spelled out) VH: EVQLLESGGGVVQPGRSLRLSCAASGFTFSSYAMHWVRQAPGKGLEWVAVISYDGSNKYYADSVKGRFTISRDNSKNTLSLQMNSLRVEDTAIYYCVRGAGHGFPTGPDGFDIWGQGTMVTVSS VL: DIVMTQTPLSLSVTPGQPASISCRSSRSLLHSDGKTYVYWYVQKSGQPPQLLIYELSNRFSGVPDRFSGSGSRTDFTLKISRVEAEDVGVYYCMQYVEAPLTFGGGTKVEIKR	1.91	0.0242	0.0325	0.264	13.1	37.6	0.00286	75600	40.3	0.00248	60600	20	0.00129	57000	8.75	0.00142	147000	14	4.16
Ab60 (antibody, human IgG2, kappa, V domains shown, format in the assays not spelled out) VH: EVQLLESGGGVVQPGRSLRLSCAASGFDFAGYAMHWVRQAPGKGLEWVAVISYDGSNKYYADSVKGRFTISRDNSKNTLSLQMNSLRVEDTAIYYCVRGAGRGLTYGPDGFDIWGQGTMVTVSS VL: DIVMTQTPLSLSVTPGQPASISCTSSRSLLHSDGKTYVYWYVQKSGQPPQLLIYELSNRFSGVPDRFSGSGSRTDFTLKISRVEAEDVGVYYCMQYIEAPLTFGGGTKVEIKR	0.385	0.0117	0.0224	0.0687	0.31	15.4	0.00239	154000	12.5	0.00169	117000	14.5	0.00165	111000	6.93	0.00188	254000	~7.32	3.83
